In this series the test system is MS2 coat protein. In words: apparent KD of MS2 coat protein; designed switch direction (-1 OFF switch, 1 ON switch): -1; higher = weaker reporter binding. The gist of the method:
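RNA switches sharing common flanks were transcribed by stalled E. coli RNA polymerase on Illumina chips. A doubling series of SNAP-549-labelled MS2 coat protein, from 0.7 or 1.5 nM to 3 µM, was applied in Tris-HCl pH 7.5 buffer with KCl, MgCl2, BSA, DTT, tRNA and Tween-20. Each step lasted 0.8–1.5 h at the bottom of the series and 10–20 min at the top. Normalised cluster fluorescence was curve-fitted, giving apparent KD as the per-design median over clusters.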

[1] abbreviates: Eterna round: R95, input ligand: FMN 200 uM.
Setting [2] is: Eterna round: R95, input ligand: microRNA oligo, concentration not stated.
Setting [3] is: Eterna round: R95, input ligand: none.
[4] abbreviates: input ligand: microRNA oligo, concentration not stated.

The results in this text go back to the supplement of paper PMC9170038.

Consider “AUAAUGUCAGGAUAUACUAAUGAUGAAUGAUCAGACAUUAUGUAGAAGGGACAUGAGGAUCACCCAUGUAAUAU [EX4 #3] (Eterna round: R97, puzzle: Exclusion 4)”, for which the “apparent KD of MS2 coat protein” value amounted to 35.5 nM (input ligand: FMN 200 uM) and 29.1 nM (input ligand: none).
On the same counts, the results for “AUAAUGUCAGGAUAUCAGUCGACUAGCUUCGGCUAGUCGACUGAGAAGGGACAUGAGGAUCACCCAUGUGUUUC [E4/14-A1] (Eterna round: R97, puzzle: Exclusion 4)” are 2390 nM and 505 nM.
For the sequence “AUAAUGUGAGGAUAUCAGUCGUACAGCGAUAGCUGUACGACUGAGAAGGCACAUGAGGAUCACCCAUGUGGUCA [E4/5-A4] (Eterna round: R97, puzzle: Exclusion 4)”, the “apparent KD of MS2 coat protein” value amounted to 162 nM (input ligand: FMN 200 uM) and 562 nM (input ligand: none).
Turning to “AUAAUUUAAGUGAGGAUAUACCUAUGGAAACAUAGGUAGAAGGCACAUGAGGAUCACCCAUGUUCCUAUACAUA [Fiskers BMX 4 - 3] (puzzle: Brourd's mod of Exclusion 4)”, the “apparent KD of MS2 coat protein” value under setting [1] was 22.8 nM, the “apparent KD of MS2 coat protein” value under setting [2] stood at 12 nM and the “apparent KD of MS2 coat protein” value under setting [3] amounted to 13.1 nM.
In the case of “AUACACUUAGUGAGGAUAUCGUUUUCUUUACGGAUCGAGAAGGCACAUGAGGAUCACCCAUGUUUGACGUGAAU [JR_BMOE4_Sub095] (puzzle: Brourd's mod of Exclusion 4)”, under setting [2], the “apparent KD of MS2 coat protein” value stood at 20.5 nM.
In the case of “AUAGAGUCAGGAUAUACAGGUGGAGGAGAGCAGCGUAAGGAGUAGAAGGGACAUGAGGAUCACCCAUGUAAGUG [JR_Exclu4_Sub060] (puzzle: Exclusion 4)”, the “apparent KD of MS2 coat protein” value by setting is: under setting [1], 52.5 nM; under setting [2], 55.1 nM; under setting [3], 81.2 nM.
On the same counts, the results for “AUAGAGUCAGGAUAUUGCGCAGUGGACAUGAGGAUCACCCAUGUGAACUUCGUACCGGGCCAAGAAGGGACGGAAA [Onedra] (puzzle: Exclusion 5)” are 96.6 nM, 21.5 nM and 31.1 nM.
On to “AUAGAUAUAGGAUAUGAGGUAUAGUACAUGAGGAUCACCCAUGUUGAUCGCAUGAACGAUUUAGAAGGAUACCUAA [Eternabot (L2) Solution 83] (Eterna round: R97, puzzle: Exclusion 5)”, for which the “apparent KD of MS2 coat protein” value by setting is: (input ligand: FMN 200 uM) 643 nM; (input ligand: none) 1310 nM.
On the same counts, the results for “AUAGGCUGUUUUGUUCGUCACAUGAGGAUCACCCAUGUCUCGAGACUGUGCUUACGUUGCGUGUAUAGUCCGGGUAU [Eternabot (L1) Solution 5] (Eterna round: R97, puzzle: Sensor, turn-off variant 1)” are 34.1 nM and 36.3 nM.
For the sequence “AUAGGGUCAGGAUAUUGCGCAGUGGACAUGAGGAUCACCCAUGUGAACUUCGUACCGGGCCAAGAAGGGACAGAAA [Tiersoaso] (puzzle: Exclusion 5)”, the “apparent KD of MS2 coat protein” value by setting is: under setting [1], 21.7 nM; under setting [2], 11.3 nM; under setting [3], 13.4 nM.
For the sequence “AUAUAGUCAGGAUAUCGAAGUGAGUGUUGGUGGGUAAGGUACGAGAAGGGACAUGAGGAUCACCCAUGUAGGAA [JR_Exclusion4)Sub004] (puzzle: Exclusion 4)”, under setting [2], the “apparent KD of MS2 coat protein” value turned out to be 48 nM.
For “AUCAGCUCGUGAGGAUAUACAUGCGUGCUUCGGCACGAAUUUAAGAUCACAUGAGGAUCACCCAUGUAGAAGGCACGAGCUGAU [ENG2/3-A3] (Eterna round: R96, puzzle: Exclusion NG 2)”, the “apparent KD of MS2 coat protein” value by setting is: (input ligand: FMN 200 uM) 1880 nM; under setting [4], 538 nM; (input ligand: none) 520 nM.
As to “AUCAGCUCGUGAGGAUAUACAUGCGUGCUUCGGCACGAAUUUAAGAUCACAUGAGGAUCACCCAUGUAGAAGGUACGAGCUGAU [ENG2/3-C3] (Eterna round: R96, puzzle: Exclusion NG 2)”, the “apparent KD of MS2 coat protein” value reads like this: (input ligand: FMN 200 uM) 498 nM; under setting [4], 287 nM; (input ligand: none) 275 nM.
In the case of “AUCAGCUCGUGAGGAUAUAUAUUAACAUGAGGAUCACCCAUGUAAGAUCAGCUUCGGCAGUUAAUAUAGAAGGCACGAGCUGAU [ENG2/14-A2] (Eterna round: R96, puzzle: Exclusion NG 2)”, the “apparent KD of MS2 coat protein” value reads like this: (input ligand: FMN 200 uM) 151 nM; under setting [4], 98.8 nM; (input ligand: none) 114 nM.
Regarding “AUCAUGUCAGGAUAUGUGACAUGGAUCUUCGGAUCAAGAUCACAGAAGGGACAUGAGGAUCACCCAUGUCGAUC [Ex4-3: 29] (puzzle: Exclusion 4)”, under setting [2], the “apparent KD of MS2 coat protein” value was 66.9 nM.
Consider “AUCCUACAUGAGGAUCACCCAUGUCAGGAUAUCCAAGAAAUGUGGCCUGAUUGGCCACGGAGAAGGGACGGGUG [jl-ex1-4.60 ViennaUCT mod] (Eterna round: R97, puzzle: Exclusion 1)”, for which the “apparent KD of MS2 coat protein” value was 47.2 nM (input ligand: FMN 200 uM) and 45 nM (input ligand: none).
On to “AUCGUAGCAGGAUAUCCGGAGAUUGACAUGAGGAUCACCCAUGUGGUCAUGCCAGCCAAUGGAGAAGGGUUUCGGU [Eternabot (L1) Solution 49] (Eterna round: R97, puzzle: Exclusion 5)”, for which the “apparent KD of MS2 coat protein” value is 618 nM (input ligand: FMN 200 uM) and 637 nM (input ligand: none).
For “AUCGUGCAGCUUUGCUGUACGAGUACAUGAGGAUCACCCAUGUAGGAUAUGGUACGCUUUGCGUGCUAGAAGGAUAUGCGUUUG [EX ENG3 1.45] (Eterna round: R96, puzzle: Exclusion NG 3)”, the “apparent KD of MS2 coat protein” value runs as follows: (input ligand: FMN 200 uM) 46.7 nM; under setting [4], 40 nM; (input ligand: none) 41.3 nM.
For “AUCGUGUGAGGAUAUCGAUUAUGGAAGUCUAGGUCCAUACGCGAGAAGGCACAUGAGGAUCACCCAUGUAAUGG [jl-ex4-4.32 ViennaUCT mod] (Eterna round: R97, puzzle: Exclusion 4)”, the “apparent KD of MS2 coat protein” value (input ligand: FMN 200 uM) is 29.8 nM and the “apparent KD of MS2 coat protein” value (input ligand: none) was 486 nM.
With “AUCUGCACGCUGCGGUCCUACAUGAGGAUCACCCAUGUGGUCUGGUGGCGUGGGUCGCCGGACUUGGCUCGUCUUGA [salish99_S_TOV1_R5_043] (Eterna round: R97, puzzle: Sensor, turn-off variant 1)”, the “apparent KD of MS2 coat protein” value reads like this: (input ligand: FMN 200 uM) 18.1 nM; (input ligand: none) 18.1 nM.
Regarding “AUCUUGAUAGGAUAUACAUGAGGAUCACCCAUGUCCCACCCGUUACCUCUGGCCCUAUGUAGAAGGAUCGUCUA [Exy#20] (Eterna round: R97, puzzle: Exclusion 3)”, the “apparent KD of MS2 coat protein” value is, setting by setting: (input ligand: FMN 200 uM) 50.5 nM; (input ligand: none) 68.5 nM.
For the sequence “AUCUUUGCUCGUCAAAUUUACAUGAGGAUCACCCAUGUCUACCUGAGUGCGUCGGGACUGUACGUCAGCCGGUGGAA [Eternabot (L2) Solution 15] (Eterna round: R97, puzzle: Sensor, turn-off variant 1)”, the “apparent KD of MS2 coat protein” value by setting is: (input ligand: FMN 200 uM) 23.3 nM; (input ligand: none) 25 nM.
Consider “AUGAGCAGACGGAGAUCCAACAUGAGGAUCACCCAUGUCUCAAAAGCUUUUUGCUCAUCUUAUCGUACCUUGGUGCU [Mat - Sensor v3 - turn-off var 1 - JL Mod - D13] (puzzle: Sensor v3, turn-off variant 1)”, for which the “apparent KD of MS2 coat protein” value stood at 162 nM under setting [1], 15.4 nM under setting [2] and 238 nM under setting [3].
On to “AUGAGGAUAAGAAAGUGAAGAUAGAGCGUACCUUAUGGAACAUGAGGAUCACCCAUGUAGCUUUUUGCUCGUCUUAU [JR_SV3TOV2_Sub031] (puzzle: Sensor v3, turn-off variant 2)”, for which the “apparent KD of MS2 coat protein” value runs as follows: under setting [1], 19.9 nM; under setting [2], 49.5 nM; under setting [3], 14.7 nM.
For “AUGAGGUUAGGAUAUACAUGAGGAUCACCCAUGUUGAAAGGUUAGAUAGGCGAAGAUGGUAGAAGGAACAAAGA [JR_Exclu3_Sub054] (puzzle: Exclusion 3)” the same measures were 29.4 nM, 38.2 nM and 43.9 nM.
For the sequence “AUGAGGUUAGGAUAUACAUGAGGAUCACCCAUGUUGAAAGGUUAGAUAGGCGAAGCUGGUAGAAGGAACGGAGC [JR_Exclu3_Sub055] (puzzle: Exclusion 3)”, the “apparent KD of MS2 coat protein” value under setting [1] is 27.9 nM, the “apparent KD of MS2 coat protein” value under setting [2] amounted to 29.8 nM and the “apparent KD of MS2 coat protein” value under setting [3] turned out to be 32.8 nM.
In the case of “AUGAUAUAACAGGAUAUUUGGCGCGGAUGCAGAGAAGAAGGGUUGACAUGAGGAUCACCCAUGUGAUCCUUCAA [Eternabot (L1) Solution 18] (Eterna round: R97, puzzle: Exclusion 6)”, the “apparent KD of MS2 coat protein” value (input ligand: FMN 200 uM) is 20.1 nM and the “apparent KD of MS2 coat protein” value (input ligand: none) turned out to be 14.3 nM.
As for “AUGCCCUGAGGAUAUCUCAUCCCGCACAUGAGGAUCACCCAUGUUCUUCUCCGGGCUCCGAGAGAAGGCAGGCCUA [Armus6] (Eterna round: R97, puzzle: Exclusion 5)”, the “apparent KD of MS2 coat protein” value is, setting by setting: (input ligand: FMN 200 uM) 68.2 nM; (input ligand: none) 102 nM.
Take “AUGGGUCCUCUCGGAGCUACAUGAGGAUCACCCAUGUGUAUUGAGGAUAUCCACUGCUCAGGACGGGAGAAGGCAGUGUACUGU [Ex NG3 #87] (Eterna round: R96, puzzle: Exclusion NG 3)”: the “apparent KD of MS2 coat protein” value (input ligand: FMN 200 uM) was 51.4 nM, the “apparent KD of MS2 coat protein” value under setting [4] is 46.3 nM and the “apparent KD of MS2 coat protein” value (input ligand: none) was 58.4 nM.
In the case of “AUGUACCGGUGAGGAUAUUUUUAAUAGAGCUUUAUGAUAUACAUGAGGAUCACCCAUGUUACUUUAAAGAAGGCAUCGGAUUAA [Mat - Exclusion NG 2 - Mod of JL - D90] (Eterna round: R96, puzzle: Exclusion NG 2)”, the “apparent KD of MS2 coat protein” value under setting [4] turned out to be 12.8 nM.
In the case of “AUGUGCACGCUGCGAUCCUACAUGAGGAUCACCCAUGUGGUCUGGUGGCGUGGGUCACCGGACUUGGCUCGUCUUGU [salish99_S_TOV1_R5_081] (Eterna round: R97, puzzle: Sensor, turn-off variant 1)”, the “apparent KD of MS2 coat protein” value is, setting by setting: (input ligand: FMN 200 uM) 62.1 nM; (input ligand: none) 77.8 nM.
